Measurements reported in patent US20230140293A1.

What was measured:
Experiment in all cases: cell-based or functional assay
[1] = molecular target: HIV-1 Env 426c, Env-pseudotyped virus produced in 293S GnTI- cells (Man5-enriched) (HIV-1 clade C strain 426c)
[2] = molecular target: HIV-1 Env 426c.TM (N276D.N460D.N463D), Env-pseudotyped virus produced in 293S GnTI- cells (Man5-enriched) (HIV-1 clade C strain 426c)
[3] = molecular target: HIV-1 Env 426c.TM4 (S278R.G471S.N460D.N463D), Env-pseudotyped virus produced in 293T cells (HIV-1 clade C strain 426c)
[4] = molecular target: HIV-1 Env 426c.DM (N460D.N463D), Env-pseudotyped virus produced in 293S GnTI- cells (Man5-enriched) (HIV-1 clade C strain 426c)
[5] = molecular target: HIV-1 Env 426c.SM (N276D), Env-pseudotyped virus produced in 293S GnTI- cells (Man5-enriched) (HIV-1 clade C strain 426c)
[6] = molecular target: HIV-1 Env 426c.TM4 (S278R.G471S.N460D.N463D), Env-pseudotyped virus produced in 293S GnTI- cells (Man5-enriched) (HIV-1 clade C strain 426c)
[7] = molecular target: CH0505TF.gly4 Env, Env-pseudotyped virus produced in 293T cells (HIV-1)
[8] = molecular target: HIV-1 Env 426c.SM (N276D), Env-pseudotyped virus produced in 293T cells (HIV-1 clade C strain 426c)
[9] = molecular target: CH0505.w4.3 Env, Env-pseudotyped virus produced in 293T cells (HIV-1)
[10] = molecular target: CH0505TF.G458Y Env, Env-pseudotyped virus produced in 293S GnTI- cells (Man5-enriched) (HIV-1)
[11] = molecular target: HIV-1 Env 426c.TM (N276D.N460D.N463D), Env-pseudotyped virus produced in 293T cells (HIV-1 clade C strain 426c)
[12] = molecular target: CH0505TF.gly3.276 Env, Env-pseudotyped virus produced in 293T cells (HIV-1)
[13] = molecular target: HIV-1 Env 426c.DM (N460D.N463D), Env-pseudotyped virus produced in 293T cells (HIV-1 clade C strain 426c)
[14] = molecular target: CH0505TF.gly3.461 Env, Env-pseudotyped virus produced in 293S GnTI- cells (Man5-enriched) (HIV-1)
[15] = molecular target: CH0505TF.gly3.461 Env, Env-pseudotyped virus produced in 293T cells (HIV-1)
[16] = molecular target: CH0505TF.G458Y Env, Env-pseudotyped virus produced in 293T cells (HIV-1)
[17] = molecular target: CH0505TF Env, Env-pseudotyped virus produced in 293T cells (HIV-1)
[18] = molecular target: CH0505TF Env, Env-pseudotyped virus produced in 293S GnTI- cells (Man5-enriched) (HIV-1)
[19] = molecular target: CH0505TF.gly4 Env, Env-pseudotyped virus produced in 293S GnTI- cells (Man5-enriched) (HIV-1)
[20] = molecular target: HIV-1 Env 426c, Env-pseudotyped virus produced in 293T cells (HIV-1 clade C strain 426c)
[21] = molecular target: CH0505TF.gly3.197 Env, Env-pseudotyped virus produced in 293S GnTI- cells (Man5-enriched) (HIV-1)
[22] = molecular target: CH0505TF.gly3.276 Env, Env-pseudotyped virus produced in 293S GnTI- cells (Man5-enriched) (HIV-1)
[23] = molecular target: CH0505TF.gly3.197 Env, Env-pseudotyped virus produced in 293T cells (HIV-1)
[24] = molecular target: HIV-1 426c.TM (N276D/N460D/N463D) Env on Env-pseudotyped virus produced in 293T cells (HIV-1)
[25] = molecular target: HIV-1 426c.DM (N460D/N463D) Env on Env-pseudotyped virus produced in 293T cells (HIV-1)
[26] = molecular target: HIV-1 426c.DM (N460D/N463D) Env on Env-pseudotyped virus produced in 293s/GnTI-/- cells (Man5-enrichment) (HIV-1)
[27] = molecular target: HIV-1 426c.SM (N276D) Env on Env-pseudotyped virus produced in 293T cells (HIV-1)
[28] = molecular target: HIV-1 clade C strain 426c Env on Env-pseudotyped virus produced in 293T cells (HIV-1)
[29] = molecular target: HIV-1 426c.TM (N276D/N460D/N463D) Env on Env-pseudotyped virus produced in 293s/GnTI-/- cells (Man5-enrichment) (HIV-1)
[30] = molecular target: HIV-1 426c.SM (N276D) Env on Env-pseudotyped virus produced in 293s/GnTI-/- cells (Man5-enrichment) (HIV-1)
[31] = molecular target: HIV-1 clade C strain 426c Env on Env-pseudotyped virus produced in 293s/GnTI-/- cells (Man5-enrichment) (HIV-1)

Substance | IC50 (µg/ml) in TZM-bl [1] | IC50 (µg/ml) in TZM-bl [2] | IC50 (µg/ml) in TZM-bl [3] | IC50 (µg/ml) in TZM-bl [4] | IC50 (µg/ml) in TZM-bl [5] | IC50 (µg/ml) in TZM-bl [6] | further results
VRC07 (antibody) | 0.07 µg/mL | 0.009 µg/mL | < 0.002 µg/mL | 0.05 µg/mL | 0.02 µg/mL | < 0.002 µg/mL | 
VRC018 (antibody) | 0.06 µg/mL | 0.006 µg/mL | 0.005 µg/mL | 0.02 µg/mL | 0.01 µg/mL | < 0.002 µg/mL | 
VRC20 (VRC-PG20) (antibody) | 0.015 µg/mL | 0.005 µg/mL | < 0.002 µg/mL | 0.007 µg/mL | 0.004 µg/mL | 0.008 µg/mL | 
VRC23 (antibody) | 0.19 µg/mL | 3.1 µg/mL | 0.082 µg/mL | 0.06 µg/mL | 0.1 µg/mL | < 0.002 µg/mL | 
VRC34.01 (antibody) | 0.05 µg/mL | 0.07 µg/mL | 0.13 µg/mL | 0.04 µg/mL | 0.07 µg/mL | 0.07 µg/mL | IC50 (µg/ml) in TZM-bl [7]: 0.94 µg/mL; IC50 (µg/ml) in TZM-bl [8]: 0.06 µg/mL; IC50 (µg/ml) in TZM-bl [9]: > 25 µg/mL; IC50 (µg/ml) in TZM-bl [10]: 0.03 µg/mL; IC50 (µg/ml) in TZM-bl [11]: 0.08 µg/mL; IC50 (µg/ml) in TZM-bl [12]: 0.62 µg/mL; IC50 (µg/ml) in TZM-bl [13]: 0.09 µg/mL; IC50 (µg/ml) in TZM-bl [14]: 0.17 µg/mL; IC50 (µg/ml) in TZM-bl [15]: 0.84 µg/mL; IC50 (µg/ml) in TZM-bl [16]: 0.21 µg/mL; IC50 (µg/ml) in TZM-bl [17]: 0.55 µg/mL; IC50 (µg/ml) in TZM-bl [18]: 0.1 µg/mL; IC50 (µg/ml) in TZM-bl [19]: 0.14 µg/mL; IC50 (µg/ml) in TZM-bl [20]: 0.08 µg/mL; IC50 (µg/ml) in TZM-bl [21]: 0.17 µg/mL; IC50 (µg/ml) in TZM-bl [22]: 0.14 µg/mL; IC50 (µg/ml) in TZM-bl [23]: 2.1 µg/mL
VRC34.1 (antibody) |  |  |  |  |  |  | ID50/IC50 in TZM-bl [24]: 0.08 µg/mL; ID50/IC50 in TZM-bl [25]: 0.09 µg/mL; ID50/IC50 in TZM-bl [26]: 0.04 µg/mL; ID50/IC50 in TZM-bl [27]: 0.06 µg/mL; ID50/IC50 in TZM-bl [28]: 0.08 µg/mL; ID50/IC50 in TZM-bl [29]: 0.07 µg/mL; ID50/IC50 in TZM-bl [30]: 0.07 µg/mL; ID50/IC50 in TZM-bl [31]: 0.05 µg/mL
